In the experiment the target is pre-translocation ribosomal complex (without L27-tRNA labeling) (UniProt P0AG67). Put plainly: co-sedimentation.
On to “M5, the F410C-Y533C variant of a cysteineless E. coli EF-G (enzyme)”, for which the ratio of co-sedimented EF-G to ribosomal S1 protein is 0.15 EF-G per S1. For T48E mutant of M5 EF-G (enzyme), the ratio of co-sedimented EF-G to ribosomal S1 protein was found to be 0.22 EF-G per S1. Regarding T48V mutant of M5 EF-G (enzyme), the ratio of co-sedimented EF-G to ribosomal S1 protein amounted to 1 EF-G per S1.

Source of the values: article PMC10849647.
